Laboratory results from the nanobody polyreactivity screen of Harvey et al. (2022).

Experiment: yeast display, Sf9 membrane polyspecificity reagent, FACS + sequencing; frameworks hold sequencing errors
Outline: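 Nanobodies from a synthetic yeast display library (Saccharomyces cerevisiae BJ5465), induced 36–48 hours with galactose, were stained 1 hour at 4 °C with 10% biotinylated, detergent-solubilized Sf9 membrane reagent, enriched on streptavidin microbeads, then FACS-sorted. Anti-HA (expression) and streptavidin (reagent binding) fluorescence set low and high (top ~1%) gates. Polyreactivity labels come from the gate of origin. Genes were colony-PCR amplified, MiSeq 2 × 250 sequenced and filtered by CDR length.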

| Sequence | polyreactivity (PSR sort gate) |
| --- | --- |
| QVQLVESGGGLVQAGGSLRLSCAASGLILPDYAMGWYRQAPGKERELVAAISESAASTYYADSVKGRFTISRDNAKNTVYLQMNSLKPEDTAVYYCAAEVWCYSWYYWYYDGEYYWGQGTQVTVSS | high polyreactivity |
| QVQLVESGGGLVQAGGSLRLSCAASGLILPYYAMGWYRQAPGKERELVAAISRTGGRTSYADSVKGRFTISRDNAKNTVYLQMNSLKPEDTAVYYCAAVGQSGGRRYDYWGQGTQVTVSS | high polyreactivity |
| QVQLVESGGGLVQAGGSLRLSCAASGLILPYYAMGWYRQAPGTERELVAAISRTAGRTSYADSVKGRFTISRDNAKNTVYLQMNSLKPEDTAVYYCAAVGQSGGRRYDYWGQGTQVTVSS | high polyreactivity |
| QVQLVESGGGLVQAGGSLRLSCAASGLILSDYAMGWYRQAPGKERELVATITSVGTTKYADSVKGRVTISRDNAKKTVYVQLHSLKPEDTAVYYCAAEFIRGYGESYDYWGQGTQVTVSS | low polyreactivity |
| QVQLVESGGGLVQAGGSLRLSCAASGLILSGYTMGWYRPAPGKERELVAAISRSGGRTYYADSVKGRFTISRDNAKNTVYLQMNSLKPEDTAVYYCAAAKRTWRSDYWGQGTQVTVSS | high polyreactivity |
| QVQLVESGGGLVQAGGSLRLSCAASGLILSSNAMGWYRQAPGKERELVAAITWDGDRTYADSVKGRFTISRDNAKNTVYLQMNSLKPEDTAVYYCAADKQYYWYDWSYVYWGQGTQVTVSS | low polyreactivity |
| QVQLVESGGGLVQAGGSLRLSCAASGLILSSNARGWYRQAPGKETELVAAITWDGDRTYADSVKGRFTISRDNAKNTVYLQMNSLKPEDTAVYYCAAYPYYYYGYDYWGQGTQVTVSS | low polyreactivity |
| QVQLVESGGGLVQAGGSLRLSCAASGLILYYYAMGWYRQAPGKERELVAAISRRDGDTYYADSVKGRFTISRDNAKNTVYLQMNSLKPEDTAVYYCAAERRWSWVVRDDYWGQGTQVTVSS | low polyreactivity |
| QVQLVESGGGLVQAGGSLRLSCAASGLISYAYAMGWYRQAPGKERELVAAIRSSGSTYYADSVKGRFTISLDNAKNTVYLQMNSLKPEDTAVYYCAKRNPIKYYGGGYWGQGTQVTVSS | high polyreactivity |
| QVQLVESGGGLVQAGGSLRLSCAASGLIVVHYAMGWYSQAPGKVREFVAAITWSGGSTYYADSVKGRFTISRDNAKNTVYLQMNSLKPEDTAVYYCAVDGFRPGTASFGYWGQGTQVTVSS | low polyreactivity |
| QVQLVESGGGLVQAGGSLRLSCAASGLIVWYYAMGWYRQAPGKERELVATITSRGGSTYYADSVKGRFTISRDNAKNTVYLQMNSLKPEDTAVYYCARENPGDSYYDYWGQATQVTVSS | low polyreactivity |
| QVQLVESGGGLVQAGGSLRLSCAASGLIYFYAMGWYRQEPGKERELVAAISSSGGRTYYADSVKGRFTISRDNAKNTVYLQMNSLKPEDTAVYYCAVVSSHYKGPGRNGYDYWGQGTQVTVSS | high polyreactivity |
| QVQLVESGGGLVQAGGSLRLSCAASGLIYFYYDMGWYRQAPGKERELVAAISQRGGSTYYADSVKGRFTISRDNAKNTVYLQMNSLKPEDTAVYYCNAYSQRYGYYYWGQGTQVTVSS | high polyreactivity |
| QVQLVESGGGLVQAGGSLRLSCAASGLIYTPYAMGWYRQAPGKERELVAAINYGGSRTYYADSVKGRFTISRDNAKNTVYLQMNSLKPEDTAVYYCNKPGNYVWRRSWDFDYWGQGTQVTVSS | high polyreactivity |
| QVQLVESGGGLVQAGGSLRLSCAASGLMFTRYAMGWYRQAPGKERELVAAISITGGSTYYADSVKGRFTFSRDNAKNTVYLQMNSLKPEDTAVYYCAAQRQVTTGIYGYWGQGTQVTVSS | high polyreactivity |
| QVQLVESGGGLVQAGGSLRLSCAASGLNFIRYAMGWYRPAPGKERELVAAISWPGGNTYYADSVKGRFTISRDNAKNTVYLQMISQKPEDTAVYYCAAVGTWQHRSYGYWGQGTQVTVSS | high polyreactivity |
| QVQLVESGGGLVQAGGSLRLSCAASGLNFWYYAMGWYRQAPGKERELVAAISWGGGSTYYADSVKGRFTISRDNAKNTVYLLMNSLKPEDTAVYYCAADSSYWYGTECDYWGQGTQVTVSS | high polyreactivity |
| QVQLVESGGGLVQAGGSLRLSCAASGLNFYWYAMGWYRQAPGKERELFAAINWSGGRTHYADSVKGRFTMSRDNANNTVYFQMNCLKPEDTAVYYCAASPYWFTRYYPKTRETMDYWGQGTQVTVST | high polyreactivity |
| QVQLVESGGGLVQAGGSLRLSCAASGLPYAMGWYRQAPGKERELVAAISSSGGSTYYADSVKGRFTISRDNAKNNVYLQMNSLKPEDTAVYYCNRDIGGTSVLDDYWGQGTQVTVSS | low polyreactivity |
| QVQLVESGGGLVQAGGSLRLSCAASGLRFNVYAMGWYRQAPGKERELVAAITSGGSTHYADSVKGRFTISRDNAKNTVYLQMNSLKPEDTAVYYCNKELATARGQSLYRTYSGYGYRGQGTQVTVSS | high polyreactivity |
| QVQLVESGGGLVQAGGSLRLSCAASGLSFSGNVMGWYRQAPGKERELVAAIDRSGGSTYYADSVKGRFTISRDNAQKTVYLQMNSLKPEDTAVYYCAVSSYPNHSRSWDDYWGQGTQVTVSS | low polyreactivity |
| QVQLVESGGGLVQAGGSLRLSCAASGLSSLRMLWDGRDRRLGKKGSWLPLITSGGDSTNYADSVKGRFTISRDNAKNTVYLQMNSLKPEDTAVYYCAADLDYPYGYWGQGTQVTVSS | low polyreactivity |

| Sequence | polyreactivity (PSR sort gate) |
| --- | --- |
| QVQLVESGGGLVQAGGSLRLSCAASGLTCSRNAMGWYRQAPGKERELVAAINWSGGSTYYADSVKGRFTISRDNAKNTVYLQMNSLKPEDTAVYYCAAEYAPSPYDWGYEYWGQGTQVTLSS | high polyreactivity |
| QVQLVESGGGLVQAGGSLRLSCAASGLTFADYAMGWYRKAPGKERELVAAISRRGGSTYYADSVKGRFTISRDNAKNTVYLQMNSLKPEDTAVYYCNAAYVYGDQARGGYWGQGTQVTVSS | high polyreactivity |
| QVQLVESGGGLVQAGGSLRLSCAASGLTFAGYAMGWYRQAPGKERELVASITTSGGSTHNADSVKGRFTISRDNEKNTVYVQMNSLKPEDTAVYYCAAECYPGDTELIGAFDYWGQGTQVTVSS | low polyreactivity |
| QVQLVESGGGLVQAGGSLRLSCAASGLTFALYAMGWYRQAPGQERELVAAIDWSGGITYYADSVKGRFTISRDHAKNTVYLQMNSLKPEDTAVYYCAARPSTFKYKYGYWGQGTQVTVSS | high polyreactivity |
| QVQLVESGGGLVQAGGSLRLSCAASGLTFANYAMGWYRQAPGKERELVAAISTWSGGSTYYADSVKGRFTISRDNAKNTVYLQMNSLKPEDTAVYYCAARRYSRGRLPYDYGGQGTQVTVSS | high polyreactivity |
| QVQLVESGGGLVQAGGSLRLSCAASGLTFARTAKGWYRQAPGKERALVAAISSRGGSTYYADSVKGRFTISRDIANNTVYLQMNSLKPEDTAVYYCATSQVLRRDRYDYWGQGTQVTVSS | high polyreactivity |
| QVQLVESGGGLVQAGGSLRLSCAASGLTFASNAMGWYRQAPGKERELVAAISWSDGSTYYADSVKGRFTISRDNAKNTVYLQMNSLKPEDTAVYYCAAEPPGFRTSRVGYWGQGTQVTVSS | low polyreactivity |
| QVQLVESGGGLVQAGGSLRLSCAASGLTFASYAMGWYRQAPGKERELVARISRSGGSTYYADSVKGRFTISRDNAKNTVYLQMKSLKPEDTAVYYCAADYIFRRYPVGGIYDYDYWGQGTQVSVSS | high polyreactivity |
| QVQLVESGGGLVQAGGSLRLSCAASGLTFAYNTMGWYRQAPGKEREFVASISSSGGNTYYADAVKGRFTISRDNAKNTVYLQMNSLKPEDTAVYYCAAKKKYHYFASYKRFEYWGQGTQVTVSS | low polyreactivity |
| QVQLVESGGGLVQAGGSLRLSCAASGLTFAYYAMGWYRQAPGKERELVATISRSGSTYYADSVKGRFTISRDNAKNTVYLQMNSLKPEDTAVDYCATAYHHYVYRQYTFGRGIYDFWGQGTQVTVSS | high polyreactivity |
| QVQLVESGGGLVQAGGSLRLSCAASGLTFAYYDMGWYRQAPGKERELVAAITSGGTTNYADSVKGRFTISRDNAKNTVYLQMNSLKPEDTAVYYCYADYYSRIVGVRIYDYWGQGTQVTVSS | low polyreactivity |
| QVQLVESGGGLVQAGGSLRLSCAASGLTFDGYAMGWYRQAPGKERELVARITRNGGITYYADSVKGRFTISRDNAKNTVYLQMNSLKPEDTAVYYCAAGQRLWKYYGVIGWTVTNYYYWGQGTQVTVSS | high polyreactivity |
| QVQLVESGGGLVQAGGSLRLSCAASGLTFDKYTMGWYRQAPGKERELVARISTSGSRTYYADSVKGRFTISRDNAKNTVYLQMNSLKPEDTAVYYCNKDGWIRRRRGYDYWGQGTQVTVSS | high polyreactivity |
| QVQLVESGGGLVQAGGSLRLSCAASGLTFDRYGMGWYRQAPGKERELVAAIDGSGTSTYYADSVKGRFTISRDNAKNTVYLQMNSLKPEDTAVYYCNAYWTYEFPSYDYWGQGTQVTVSS | low polyreactivity |
| QVQLVESGGGLVQAGGSLRLSCAASGLTFDVYTMGWYRQAPGKETEFVAAITWDGGITYYADSVKGRFTISRDNAKNSVYLQMNSLKPEDTAVYYCAADYALGEVYWYNYWGLGTQVTVSS | low polyreactivity |
| QVQLVESGGGLVQAGGSLRLSCAASGLTFDYYTMGWYRQAPGNERELVAAINWSGGRTYYADSVKGRFTISRDNAKNTVYLQMNSLKPEDTAVYYCAAETYRRHDYDYWGQGTQVTVSS | high polyreactivity |
| QVQLVESGGGLVQAGGSLRLSCAASGLTFEGNAMGWYRQAPGKERELVAAISRRGGSTYYADSVKGRFTISRHNAKNTVYLQMNSLKPEDSAVYYCAADRQPYTDKYDYWGQGTQVTVSS | high polyreactivity |
| QVQLVESGGGLVQAGGSLRLSCAASGLTFEGYAMGWYRQAPGKERELVAAISSSSGRTYYADSVKGRFTISRDNAKNTVYLQMNSLKPEDTAVYYCAARPGSGRSYTSDYWGQGTQVTVSS | high polyreactivity |
| QVQLVESGGGLVQAGGSLRLSCAASGLTFEHNAMGWYRQAPGKEREFVAVISWRGTSTYYADSVKGRFTISRDNAKNTVYLQMNSLKPEDTPVYYCATRYYGDDGYRYDHWGQGTQVTVSS | high polyreactivity |
| QVQLVESGGGLVQAGGSLRLSCAASGLTFERYAMGWYRQAPGKERELVAAISIRGGSTYYADSVKGRFTISRDNAKNTVYLQMNSLKPEDTAVYYCSADGRGREYDYWGQGTQVTVSS | low polyreactivity |
| QVQLVESGGGLVQAGGSLRLSCAASGLTFEYNAMGWYRQAPGKERELVASISSGGGTNYADSVKGRFTISRDNAKNTVYLQMNSLKPEDTAVYYCATDNYDWSCWAFRGYWYDYWGQGTQVTVSS | low polyreactivity |
